Laboratory results: patent publication US8956838B2, “Carboxyl esterase polypeptides” (B.R.A.I.N., priority 2006, dated 2015)

How the values were obtained:
Assay type in all cases: biochemical
[1] = Titration assay with triglycerides; settings: 10 mM, 37° C., pH 7.0
Method: Enzyme activities on the substrates triacetin, tripropionin, tributyrin, tricaprylene, trilaurin and vinyl-substrates (vinyl-acetate, ˜propionate, ˜butyrate, ˜caproate, ˜caprylate and ˜laurate) were determined using a standard titration assay with minor modifications. Tests were performed with a Methrom 718 STAT potentiometric titrator (Herisau, Switzerland) and by using 10 mM NaOH for titration. The substrates at 10 mM concentration were emulsified in 20 ml reaction buffer containing 2 mM Tris/HCl pH 7.0. After addition of 7.5 μg of the purified enzyme the NaOH consumption was recorded at a reaction temperature of 37° C. One unit was defined as the amount of enzyme that released […] of fatty acid per min.

[2] = Solvent stability, residual activity; settings: 1 h at 30° C., measured at 45° C.
Method: The stability of the enzymes was determined in the presence of the following solvents: DMSO, isopropanol, methanol, dimethylformamide, acetone and acetonitrile. The enzymes were incubated for 1 hour at 30° C. in the presence of either 15% (v/v) or 30% (v/v) of the solvents and the residual activity was measured at 45° C. The substrate used was pNP-butyrate.

[3] = Determination of thermal stability
Method: To assay the thermostability of the enzymes they were incubated at different temperatures for one hour and the residual activity assayed at 10 minute intervals. Residual activity was measured using pNP-caproate as substrate as described above.

[4] = Enzyme activity with pNP-acylesters of different chain length; settings: 4 mM, 45° C., pH 7.2
Method: Enzyme activity tests were performed by incubating the enzyme with 4 mM substrate at 45° C. in 100 mM Tris-HCl buffer at pH 7.2, unless otherwise indicated. The reaction was measured at 410 nm. One unit is defined as the amount of enzyme catalyzing the appearance of 1 μmol of free p-nitrophenol/min. Enzyme activity against pNP-acylesters (butyrate, valerate, caproate, octanoate, decanoate and palmitate) was tested under the above conditions. […] The enzyme according to SEQ ID NO: 6 converted pNP-caproate with a specific activity of 80.0 U/mg.

[5] = Effect of bivalent cations and EDTA on catalytic activity
[6] = Enantioselectivity, GC analysis of hydrolysis of acetic acid esters; settings: for conversion %: ^2 only complete conversion could be measured
Method: To assay the activity of the enzymes on a range of acetic acid esters gas chromatography was used. The samples were analyzed for the production of chiral alcohols by the gas chromatograph GC-17A (Shimadzu, Duisburg, Germany) equipped with FID detector and CP-Chirasil-DEX CB (Chrompack (Middelburg, Netherlands), 25 m×0.25 mm ID) at a helium flow of 1.3 ml/min. The temperature programme included: 5 min at 60° C., followed by an increase of 5° C. per min until 190° C. was reached. For the GC analysis, activity-tests were run in 1 M Tris buffered solutions and using 10 mM substrates dissolved in DMSO as 0.1 M stock solutions. 2 μg of the enzyme were added and tests incubated over night before the corresponding alcohols could be extracted by treatment with acetic acid ethyl ester and analyzed by GC.

[7] = Determination of pH optimum by titration; settings: incubation for up to 48 hours, up to pH 12 (data not shown)
Method: The pH optimum for the enzymes was determined using tributyrin as substrate. The incubation conditions were 20 ml buffer (2.5 mM phosphate buffer [pH 4-7], 2.5 mM Tris/HCl buffer [pH 7-11] or 2.5 mM glycine buffer [pH 9-11], supplemented with 100 mM NaCl) stirred at a constant temperature of 37° C. The esterase substrate tributyrin (final concentration of 2 mM) was added to 5 ml of the corresponding buffer at 37° C., emulsified and added to the whole preparation. This substrate emulsion was held constant at the correct pH automatically by the titrator (718 STAT Titrino; Metrohm, Herisau, Switzerland) for 2 min and this served as the control. […]

[8] = Substrate specificity on pNP-substrates with importance for pharmaceutical products; settings: 30 minute, 40° C., pH 7.5
Method: The substrate range of the two enzymes was determined using pNP esters of the following: benzoate, 2-(4-isobutylphenyl)propanoate (Ibuprofen), 2-phenylpropanoate, 3-phenylbutanoate, cyclohexanoate, 2-(3-benzoylphenyl)propanoate, 2-naphthoate, 1-naphthoate, adamantanoate and 2-(6-methoxynaphthalene-2-yl)propanoate (Naproxen). Activity was determined at 410 nm after 30 minute incubation at 40° C. The reaction mixture was 950 μl buffer (100 mM Tris, pH 7.5), 50 μl substrate (5 mg/ml in DMSO) and 1 μg enzyme.

[9] = substrate Acetic acid ester of tetrahydronaphthylamin
[10] = substrate acetic acid ester of (+/−)-1-octin-3-ol, 10 mM, over night
[11] = substrate acetic acid ester of cis-1,2-cyclohexandiol, values marked ^1: substrate conversion after 12 h
[12] = substrate acetic acid ester of phenylethylamin
[13] = substrate acetic acid ester of trans-1,2-cyclohexandiol
[14] = substrate cis-3,5-diacetoxy-1-cyclopenten
[15] = substrate isopropylidenglycerolacetate (rac.), values marked ^1: substrate conversion after 12 h

B1: EstCE1: recombinant enzyme having carboxyl esterase activity, amino acid sequence SEQ ID NO: 4, family VIII of bacterial lipolytic enzymes (protein)
chain: MSIADQSLAKRVQGVSQQAIDEGRIVGSVVLIARHGRVIYANASGYADREQKKPMVRETQFRLSSVSKPYITLAAMRMIEQQKLGLDDTVSRWLPWFTPALADGVRPPIKIRHLLSHTAGLDYRLSQPAEGPYHRLGIKDGMELSSLTLEQNLRLLAQADLLAEPGSEFRYSLAIDVLGAVLEQVAGEPLPQVFNHWVAQPLGLRNTGFYTTDVDNLATAYHDTAAEPEPIRDGMLLTLPEGFGFEIELAPSRALDAQAYPSGGAGMVGDADDVLQLVETLRTGKEGILQPATAALMRQAHVGSHAETQGPGWGFGFGGAVLEDAQLAATPQHNGTLQWGGVYGHSWFYDPQAAISVVALTNTAFEGMSGRYPLQIRDAVYGTNEPTR
modifications: metagenomic sequence
specific activity ([1]; substrate triacetin (C2)): 26.7 U/mg | specific activity ([1]; substrate tributyrin (C4)): 54.7 U/mg | specific activity ([1]; substrate tricaprylin (C8)): 0 U/mg | specific activity ([1]; substrate trilaurin (C12)): 0 U/mg | specific activity ([1]; substrate tripropionin (C3)): 33.3 U/mg | Residual activity after 1 h incubation in the presence of solvent ([2]; 15% (v/v) Acetone): 14% | Residual activity after 1 h incubation in the presence of solvent ([2]; 15% (v/v) Acetonitrile): 0% | Residual activity after 1 h incubation in the presence of solvent ([2]; 15% (v/v) DMSO): 103% | Residual activity after 1 h incubation in the presence of solvent ([2]; 15% (v/v) Dimethylformamid): 34% | Residual activity after 1 h incubation in the presence of solvent ([2]; 15% (v/v) Isopropanol): 75% | Residual activity after 1 h incubation in the presence of solvent ([2]; 15% (v/v) Methanol): 90% | Residual activity after 1 h incubation in the presence of solvent ([2]; 30% (v/v) Acetone): 0% | Residual activity after 1 h incubation in the presence of solvent ([2]; 30% (v/v) Acetonitrile): 0% | Residual activity after 1 h incubation in the presence of solvent ([2]; 30% (v/v) DMSO): 17% | Residual activity after 1 h incubation in the presence of solvent ([2]; 30% (v/v) Dimethylformamid): 0% | Residual activity after 1 h incubation in the presence of solvent ([2]; 30% (v/v) Isopropanol): 23% | Residual activity after 1 h incubation in the presence of solvent ([2]; 30% (v/v) Methanol): 0% | thermal stability, in words ([3]; incubated for at least 60 minutes at 40° C.): without a major loss of activity | thermal stability, in words ([3]; incubation at temperatures above 45° C. for more than 60 minutes (data not shown)): rapid inactivation | specific activity ([4]; substrate pNP-butyrate (C4)): 31.1 U/mg | specific activity ([4]; substrate pNP-caproate (C6)): 7.4 U/mg | specific activity ([4]; substrate pNP-decanoate (C10)): 0.9 U/mg | specific activity ([4]; substrate pNP-octanoate (C8)): 1.0 U/mg | specific activity ([4]; substrate pNP-palmitate (C16)): 0.0 U/mg | specific activity ([4]; substrate pNP-valerate (C5)): 22.9 U/mg | stimulatory effect on catalytic activity ([5]; in the presence of Ca^2+): 118% | stimulatory effect on catalytic activity ([5]; in the presence of Mg^2+): 108% | hydrolysis, in words ([6]; acetic acid ester of R-(+)-3-chlor-1-phenyl-1-propanol): capable of hydrolyzing | conversion, in words ([6]; acetic acid ester of cis-1,2-cyclohexanediol): capable of converting | conversion, in words ([6]; acetic acid ester of isopropylidene glycerol): capable of converting | hydrolysis, in words ([6]; acetic acid ester of rac-1-octin-3-ol): capable of hydrolyzing | hydrolysis, in words ([6]; acetic acid ester of trimethylsilylbutinol): capable of hydrolyzing | conversion % of 1.e [6, 9]: 0% | conversion % of 2.e [6, 9]: 0% | ee % ([6]; substrate acetic acid ester of (+/−)-1-octin-3-ol): 3% | conversion % of 1.e [6, 10]: 64% | conversion % of 2.e [6, 10]: 60% | conversion % ([6]; substrate acetic acid ester of R-(+)-3-chlor-1-phenyl-1-propanol): 100^2% | ee % ([6]; substrate acetic acid ester of cis-1,2-cyclohexandiol): 0% | conversion % of 1.e [6, 11]: 100^1% | conversion % of 2.e [6, 11]: 100^1% | conversion % of 1.e [6, 12]: 0% | conversion % of 2.e [6, 12]: 0% | conversion % of 2.e [6, 13]: 45% | ee % [6, 13]: 38% | conversion % of 1.e ([6]; substrate acetic acid ester of trans-1,2-cyclohexandiol, in text: conversion of the preferred enantiomer): 100% | conversion % ([6]; substrate acetic acid ester of trimethylsilylbutinol): 100^2% | conversion % of 2.e [6, 14]: 59% | ee % [6, 14]: 66% | conversion % of 1.e ([6]; substrate cis-3,5-diacetoxy-1-cyclopenten, conversion for the preferred enantiomer): 12% | ee % ([6]; substrate isopropylidenglycerolacetate (rac.)): 0% | conversion % of 1.e [6, 15]: 100^1% | conversion % of 2.e [6, 15]: 100^1% | ee % ([6]; substrate menthylacetate (rac), for the (+)-enantiomer): 100% | conversion % of 1.e ([6]; substrate menthylacetate, 1. enantiomer (+)): 100% | conversion % of 2.e ([6]; substrate menthylacetate, 2.e. (−)): 0% | stability under alkaline conditions, in words [7]: extremely stable with little loss of activity | specific activity ([8]; pNP-ester of 1-naphthoate): 0 U/mg | specific activity ([8]; pNP-ester of 2-(3-benzoylphenyl) propanoate): 0.8 U/mg | specific activity ([8]; pNP-ester of 2-(4-isobutylphenyl) propanoate (Ibuprofen)): 0 U/mg | specific activity ([8]; pNP-ester of 2-(6-methoxy-naphthalen-2-yl) propanoate (Naproxen)): 0 U/mg | specific activity ([8]; pNP-ester of 2-naphthoate): 0 U/mg | specific activity ([8]; pNP-ester of 2-phenylpropanoate): 0 U/mg | specific activity ([8]; pNP-ester of 3-phenylbutanoate): 1.0 U/mg | specific activity ([8]; pNP-ester of adamantanoate): 0 U/mg | specific activity ([8]; pNP-ester of benzoate): 12.1 U/mg | specific activity ([8]; pNP-ester of cyclohexanoate): 16.8 U/mg
